Source: US8530235B2, “Medium that supports culture of an oocyte and modulation of granulosa cell apoptosis” (Adelaide Research & Innovation Pty Ltd., priority 2005, dated 2013)

B1: GDF-9: Recombinant mouse GDF-9 produced in-house in transfected 293H cells, partially purified by HIC (protein, UniProt Q07105 307-441, looked up)
Growth/differentiation factor …: GQKAIRSEAKGPLLTASFNLSEYFKQFLFPQNECELHDFRLSFSQLKWDNWIVAPHRYNPRYCKGDCPRAVRHRYGSPVHTMVQNIIYEKLDPSVPRPSCVPGKYSPLSVLTIEPDGSIAYKEYEDMIATRCTCR
B2: BMP-15: Recombinant ovine BMP-15 produced in-house in transfected 293H cells, partially purified by hydrophobic interaction chromatography; dosed as % v/v (protein, UniProt Q9MZE2 269-393, looked up)
Bone morphogenetic protein 15: QAGSIASEVPGPSREHDGPESNQCSLHPFQVSFQQLGWDHWIIAPHLYTPNYCKGVCPRVLHYGLNSPNHAIIQNLVSELVDQNVPQPSCVPYKYVPISILLIEANGSILYKEYEGMIAQSCTCR

Experiments:
cumulus-oocyte complexes = test: Study V: oocyte IVM with GDF9, cumulus expansion and embryo development; format: cell-based, mice; conditions: 200 ng/ml GDF9 with FSH/EGF
Procedure: Oocytes (n=1106) were then fertilised and cultured to the blastocyst stage in G1.2/G2.2 medium at 37° C. in 6% CO2 5% O2. Blastocysts were pooled and either transferred to pseudo-pregnant Swiss females or differentially stained. Pregnancy outcome was assessed on Day 15 of pregnancy.

cumulus cells = test: Staurosporine-induced cumulus cell apoptosis in OOX (TUNEL); format: cell-based, Bovine; conditions: 10% BMP-15 or 10 ng/ml BMP-6
Procedure: CC apoptoic DNA was detected using TUNEl (Roche Diagnostic, Penzberg, Germany) according to the manufacturer's instructions. […] Complexes were then permeabilized in 0.11/u Triton X-100 in 0.1% sodium citrate for 1 hour at room temperature and washed 3 times in PBS/BSA. The complexes were then incubated in fluorescein-conjugated dUTP and terminal deoxynucleotide transferase (TUNEl reagents, Roche) for 1 hour at 37° C. in the dark. Positive controls were incubated in DNAse 1 (0.005 U/µl), which cleaves all DNA, for 20 minutes at room temperature and washed twice in PBS/BSA before TUNEl. Negative controls were incubated in fluorescein-dUTP in the absence of TdT. After TUNEl, complexes were washed twice in PBS/BSA and counterstained with propidium iodide 0.5 μg/ml (PI) plus RNase A (0.1 mg/ml) for 1 hour at room temperature in the dark to label all nuclei. Complexes were then washed twice in PBS/BSA and mounted with slight coverslip compression in VectaShield anti-bleaching solution (Vector labs, Burlingame, Calif.), and stored in the dark at 4° C. for confocal analysis. […] These optical section images were acquired and saved as independent colour channels (green, apoptotic cumulus fluorescence and red, nuclear cumulus fluorescence). The captured images were then processed in Scanalytics IPlab software Version 3.6. (Scanalytics, Fairfax, Va.). Quantification of CC number (for each colour channel) was independently measured using a macro script utilizing an auto segmentation filter for each optical section percentile (3 optical “z”-plane sections for each complex). A percentage of apoptotic nuclei were generated for each slice and the three percentile values were then averaged to achieve a representation of the total apoptotic nuclei percentage for the whole complex. These processes were repeated separately on each individual complex. A preliminary experiment was conducted to determine the apoptotic effect of staurosporine on bovine CC, which induced apoptosis in a dose-dependent manner (range; 0.1-100 μM, data not shown). The aim of this experiment was to determine whether OSF could prevent CC from undergoing apoptosis induced by staurosporine. OOX alone or co-cultured with 35 DO, 10 ng/ml BMP-6 or 10% (v/v) BMP-15, and were then exposed to either 0.1 μM or 1.0 μM staurospourine for the last 6 hours of the 24 hour incubation period. Three replicates of this experiment were carried out using 10 OOX per treatment group per replicate experiment.

Molecule	fertilisation, rate of development or blastocyst percentages (cumulus-oocyte complexes)	blastocyst total cell number (cumulus-oocyte complexes; P=0.05)	cumulus expansion index (cumulus-oocyte complexes; vs 2.4±0.1)	blastocyst percentages (cumulus-oocyte complexes; vs 75%, no significant effect)	CC apoptosis of treated OOX exposed to staurosporine (cumulus cells; 0.1 μM staurosporine)	CC apoptosis of treated OOX exposed to staurosporine (cumulus cells; 1 μM staurosporine)
B1	no significant effect	significantly increased	3.1±0.1	83%		
B2					17%	25%
